The record followed here is patent US20190160169A1 (JULIUS MAXIMILIANS UNIVERSIT T W RZBURG, published 2019).

Assay [1] concerns the target T1, recombinant mature human GDF-15 protein (derived from Baculovirus-transfected HighFive insect cells) (human, UniProt Q99988 197-308).
T1 construct: also called recombinant human GDF-15; GDF-15 derived from insect cell expression
T1 sequence: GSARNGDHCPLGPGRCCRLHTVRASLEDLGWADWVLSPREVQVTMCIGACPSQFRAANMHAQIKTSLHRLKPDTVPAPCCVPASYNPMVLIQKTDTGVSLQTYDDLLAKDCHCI
In words: SPR (Biorad ProteOn XPR36), KD=koff/kon. From the text: (§1) For preparing the biosensors recombinant mature human GDF-15 protein was immobilized on flow cells 1 and 2. On one flow cell recombinant GDF-15 derived from Baculvirus-transfected insect cells (HighFive insect cells) and on the other recombinant protein derived from expression in E. coli was used. The GLC sensor chip was activated using Sulfo-NHS (N-Hydroxysulfosuccinimide) and EDC (1-Ethyl-3-[3-dimethylaminopropyl]carbodiimide hydrochloride) (Biorad ProteOn Amine Coupling Kit) according to the manufacturer's recommendation, the sensor surface was subsequently loaded with the proteins up to a density of about 600 RU (1 Ru=1 pg mm⁻²). The non-reacted coupling groups were then quenched by perfusion with 1M ethanolamine pH 8.5 and the biosensor was equilibrated by perfusing the chip with running buffer ([…], 150 mM NaCl, 3.4 mM EDTA, 0.005% Tween-20, pH 7.4, referred to as HBS150). […] The resulting sensogram was analyzed using the software ProteOn Manager version 3.0. […] For the association rate constant a value of 5.4±0.06×10⁵ M⁻¹ s⁻¹ (kₒₙ) and for the dissociation rate constant a value of 4.3±0.03×10⁻⁴ s⁻¹ (koff) could be determined (values are for the interaction of anti-human GDF-15 mAb-B1-23 with GDF-15 derived from insect cell expression).

Assay [2] deals with recombinant mature human GDF-15 protein derived from expression in E. coli (human) (UniProt Q99988). In words: SPR (Biorad ProteOn XPR36), GDF-15 immobilised on GLC chip, antibody as analyte.
In assay [3] the target is T1, recombinant mature human GDF-15 protein …. Description: SPR (Biorad ProteOn XPR36), GDF-15 immobilised on GLC chip, antibody as analyte, 25 °C, 1:1 Langmuir.
Text: as §1

B1: monoclonal anti-human GDF-15 mAb-B1-23 (antibody, V domains shown)
VH: QVKLQQSGPGILQSSQTLSLTCSFSGFSLSTSGMGVSWIRQPSGKGLEWLAHIYWDDDKRYNPTLKSRLTISKDPSRNQVFLKITSVDTADTATYYCARSSYGAMDYWGQGTSVTVSS
VL: DIVLTQSPKFMSTSVGDRVSVTCKASQNVGTNVAWFLQKPGQSPKALIYSASYRYSGVPDRFTGSGSGTDFTLTISNVQSEDLAEYFCQQYNNFPYTFGGGTKLEIK
notes: also called antibody B1-23; monoclonal mouse antibody GDF-15
The term Kd denotes a measure of binding affinity in units of concentration. A word on the koff: it is the first-order rate constant of dissociation. One may read the kon as the second-order rate constant of association. Turning to B1, the Kd in assay [1] is around 0.79 nM. Further, in assay [2], the deviation of rate constants against GDF-15 derived from insect cells worked out at 45% and the difference of affinity values against GDF-15 derived from insect cells is below 2 fold. For the same molecule, in assay [3], the koff was found to be 0.00043 s⁻¹ and the kon amounted to 540000 M⁻¹ s⁻¹.
